According to the domain aggregation screens of Martell et al. (2025):

test: soluble fraction after stress (log2 fold change); higher = more stays soluble; pooled small domains, quantitative proteomics; conditions: stress: 75 degC
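Also: 20 min heating vs room temperature control held 20 min.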

| Sequence | soluble fraction (log2) |
| --- | --- |
| HMKLTINIDAAHDGKTIKQLFAEKGYSLELIKKFKYDGAIEVNGERKTVRWVLREGDLLVLEAN | -2.42 |
| HMKLTNIQYETLKVVVESRAKIDEEEGITIKLEDIKKYIDQAISFTGLVGDDEDYKKLFADMEYRFKIQ | -2.96 |
| HMKLVAAGYHQNRLLVLLGIQAEELQAKRLLASFDRFRGREATPKPPIHDSARRWLRDTYHHVMNQVPVEL | -1.59 |
| HMKMHKIIKERRLALNFTQEQVAKYLGVTTPAVNKWEKGISYPDISLLPALARLLDTDLNTLLSF | -4.38 |
| HMKMLPAEVLTHPAVVALIERGAPTGSITPEEVRQASEDAAVEPRHLKALLAHLSALGISVQIP | -0.303 |
| HMKMLSIQRREAIRALLLEKESITIAEVMEKFQISVETARRDFDALADEGFLNKVYGGATLKK | -1.68 |
| HMKMPNGYGSITKLSGKRRKPWRVRKTAGWELDAKTQKLKQTYINIGYYETRADAMSALVSYNEDP | -1.01 |
| HMKMQPVISQGVLYINNVTDVRTIEVFDISGRIVADAAASTTVNIAHLNEGPYIVKVTTVNGIESIKILNK | -2.5 |
| HMKNAMTDIYLEEIKKILTKNEFLVYTLRELNNFSVQFITDNYDLSEKTIYNSVYRAKKKIDRHFT | -0.159 |
| HMKNDKLLIFMELKGISRTQLSKSTGIPASTLGRIINGDVQKIKAVYMEAIANALDTSIHTIFDV | -1.6 |
| HMKNDNIHMMASKINGIALEVGVLTPGMHPKNDLSEGEVGYIVTNLKTTREAKVGDTVTLAKKPAATPLPG | 0.322 |
| HMKNETFAITSEDAGKRLDVWLTNILGDYSRSYVERLVEQGNVTVGGKTVKAGYKLKAGDSVQVSIPGPK | 0.144 |
| HMKNISSEEDREKALSLGITQEFIDNKGRYFITVPNKPSNFKEQALNIQKEISEQIDTVINKRFEF | 0.0903 |
| HMKNLDILTPKEIEVLNLVAKGYSNSKISKELDIAEVTVKKHIGSMFQKLDVKDRLSLALIL | -0.591 |
| HMKNLKPSTEVILKELVKRYPDQTEFRKQQIVDVGQSFGYKGKDYGPIFDADNRVKIGTYDLAGLIVPLQR | 0.0472 |
| HMKNLNVIDLSALRTLELKESSDWTLIQKRFKLLVKKYHPDMNAGSKQYEEKLKKITLAYTHLKKLF | -2.67 |
| HMKNQQLFNIGDRFQVDGVAYRMEKLFPENGTVEVYNLGVGRHKTMSFEEILALWNSGKLLFEI | -0.966 |
| HMKNSIKLDNFVGMSYDEVISNKEYDFNFVSAFEKTSDYEAGTIIGQTPAAEERVMVGTTVTLTVAQP | 0.491 |
| HMKNTADRVYENLFHMLVSGDYAPGDRIPSEHELKERFNVSRNTIRAALNRMNALGIIETRQGDGTYLKG | -0.472 |
| HMKNTFGLTEREMEVLALIVDGLSNPEIAEKLFITRATAKAHVHSILQKLYVDDRTQAAVTAMREGL | -2.21 |
| HMKNTIPVPHIIGLSEQEARETLERAGLQLNVIKTEPNTKYESGQVTDTNPNEGIKVPKGTIVNVVLADS | -0.0118 |
| HMKNTLDAYIRYLSNFLSRNNYPEAEDLSFINARADQAYEVFLEARRGGVDVSTAEELAMIALMQGY | -2.34 |
| HMKNVEEMILGKLKRKVSENLENASFEEIILVDAEKSVYKGIIKANYIEYYFRVNLSTGEVLSWKLK | -0.86 |
| HMKPAFTPYVVKVTADVLNVRSGPGTNYGITTKVKKGEAYTIVEEKNGWGKLKSGAGWISLEYTVK | -1.09 |

| Sequence | soluble fraction (log2) |
| --- | --- |
| HMKPALFSADELNRLYRYGLSLTGERDRAYDLLQTALEKYLRQSQAPANAMRYVRKIMHNQFIDDYR | -1.53 |
| HMKPDWLSDGRLIPDEVMSHLRKIAVHAVEEMGYSPEDVIKILGLSRNTIYDWLKRFREHGYEGLDTKK | -0.957 |
| HMKPLAQQVNDYLAATRTSIATLANEIPGYSRPTISRYLAGKYDGDITTIEKLLAEWLAQRTG | -0.832 |
| HMKPNEYVSGETFPYLGKNYRLKVLHGSENSVRLKGGYFITTISNRDSQLSTVKSLLEDWYQTHADK | 0.043 |
| HMKPPTIELSYSEFIELVERGKVSKVIFSSDNYTLKGETVNGENFETVRPPFLEDNLSEILTIHKVPVSSE | -0.109 |
| HMKPSKTVYTTANLNLRNGASMSAAVYTSVSRGTALATTGRTTSGWTQITHRGRTLWASSKYLTTTTPP | -3.17 |
| HMKPSNRSYPTALRMEVIGIIRERYADFGPTLAGEKLAELHGIHLGRETIRQWMMAAGLWKDRR | -1.09 |
| HMKPTVKVPNVVNLSLRNAQIQLQNYGLEVGSISYESSRFKNAVLRQSISEGSVVEKGTTINLVISDGL | -1.56 |
| HMKPVPPLNGTSLRDLALGYAGRYATTAARLKHYLQRKLRERGWGGEDEPDLDGLVARLVELGYVNDEVF | -0.704 |
| HMKQAINFSDLNSLEEGLGIAIRQKWNEVSINDVPEDKIELVEDWINNNRGKYKGINISIGSTY | 0.114 |
| HMKQAVESAEAIFEEIARIKKLSLVKSEAEEIARKTGLQKFTIASQLLKNQHAYEMDESEIASLWDKKI | -0.0597 |
| HMKQDFVYNGFVEAKGDDLMVQINYKGETYYVTEGESFGGFTVKSANKDKVVLSGQGGAETVLEFR | -0.186 |
| HMKQENRLKILRKEKGLTQTKLANEIGVSKRTIIAWENDERQIKPDKAQQLADYFGVKEGYLLGYTNN | 0.114 |
| HMKQESSEDLLNEVIDKVIDSNPDEKNRLLDGELKLVSFFMGQVMKETKGKANPGVINGLIKKKFNI | -0.701 |
| HMKQISNTDELEAMIQKIIEDNSQQVEKFRSGNEKLFGWFVGQVMKNTQGAANPKVVNEILKKSLK | 0.318 |
| HMKQISNTDELESMAKNIIQENPDQVSKFKNGNEKLFGWFVGQMMKSTGGTANPKVVNEILKNLLN | 0.134 |
| HMKQLIGYSVIDIKMGKLGEISFVNSKTAQALIHVSKDGKGFYFPWHKQFVKNIDAEKGIMEVEIPKEFLD | -0.974 |
| HMKQLNKRQNDILSFAEKQGYVSVENLAKLFSVTQQTIRRDINYLSDNELLVRTHGGAYYSS | -1.18 |
| HMKQNRNLPVQIINNGKIIESVMTEFNLDIDWVYSEAKRLGYKNIKDIFYAGINRDGQFFIVPLF | -3.06 |
| HMKQNVEAVIKERAIEKARAQVKAVSTHMALEAQSLSKEQLEFEIERIAAQIIDKMPSDFWND | -1.28 |
| HMKQPNFTVIETKILELLFQKDLSSREMQEILKISKDNLIFALQNLLEQEKIVLQTSNTYTVN | -1.88 |
| HMKQPVPDEIYFKRLANATEALGRYPRASERKKFGLNMSKRRYPTLTDFINKAIELGYVEDFR | -0.833 |
| HMKQQAYEQGKAAYQSGDWLRAVTQLGQVKEAGEKNGEVDHLLGNAYMKLGQFESAAYAYNSALEDVA | 0.53 |
| HMKQTMIVVMEKDAPQSQIDDMVKRIEGLGLKAHTIVGTQRTVVAAIGEKREDTRESLAGSPGVAEVVPIL | 0.239 |

| Sequence | soluble fraction (log2) |
| --- | --- |
| HMKQYVEPASETEKMVVELWEKVLLTEKIGMHDDFFELGGHSLKAMRLISLYHQEFNVRLSLKSLFEKLK | -0.241 |
| HMKRAVGLDEYRDSIVLKKPEGYTEESYAAYKNAYDALMALDSKETTAEMFANAKSAFEAAQAGLVQKP | 0.119 |
| HMKRIFEKKVVTESLNGLRLDKAAATLFADFSRNELGQWIKDEALLVNGKAKKVKEKVSEGDVLALDVELI | 0.203 |
| HMKRISDEDLLVMRRIDEVHTYHPTWGYRTITRILRRDDHLLINPKKVRRIMRDMGIYTIYPK | -0.0338 |
| HMKRITAVISQKKGRDYYYIIVSYYLSNGKRVQRWIKTEFPINGNNKRKLEQKRIEVLQEWQDKLV | -1.23 |
| HMKRLQEQAYDYLKELILSGKMIENEIYSETKLASEIGISRTPIRDALQRLSQDGFIDIIPSKGFRIH | -0.734 |
| HMKRMSKKQLSAVIEKYFSSQPGVTLTLKDIFRNLHLDTHPLKMIALDILEEMSWDDVIMKVSDTSYALNT | 0.194 |
| HMKRNLESVLDHIEGIGPKRRKALYKHFGNLDAMRVAELEELESVEGMNKKAALAVYEFFRRNS | 0.386 |
| HMKRNTKAEVLEILLNSGETPVSGERLAENLGISRNAVWKAVTALKEDGYNISAKRNSGYILNKS | -0.143 |
| HMKRREENLRRLALSTAERVKRKGKKEILNPMSPQERRIIHLTLQNNKEVVTHSEGEDPYRRVIISPRN | -0.397 |
| HMKRRSLQVGDIVQVRSLNVKGEVVSIGKNEVVVAVGRLQMRAGFDDLDFKERPKEEREVESV | -0.467 |
| HMKRSFGSVRQLRSGNYQARYTGPDTVRHTSPVTYTSKMDAEAWLVDERRKISSGTWTPPAR | -0.193 |
| HMKRSVIVTAERAEVRQKADEGSALVFEAEKNVSLEYLEAAPGGWVKVRHLDGQSGFVRGNQI | -0.309 |
| HMKRTKLEEATEWLRDRLSDGVKYNGEELLREGESADMARRTLRRAAQELGVIIERERGARGRWFWSLP | -0.897 |
| HMKRTLLLEGRTIPYELTQKPVKNINIRVHADGSVRVSAGPWVSPEAVDAVLRQRSAFLLRALDQFAAQAP | -1.91 |
| HMKRVPFAFAGDMLRWAAWLYHVEKRTQNEIAEELEVSRQTVANYLSEAMSQGLVQVQLRSDIIE | -1.98 |
| HMKSAIGEEKAENFAFADLGMDPLSAEGVRTEFGFEQGQFVYKVYFTADGTEYEYWIKASDGSVVKKGMDL | -1.53 |
| HMKSAIKQNILLYLSNKGVTSYEFYKISGVTRGILQQSNGISEDNIAKFLAYAPDVNIEWLLTGKGDMLKH | -1.41 |
| HMKSATGKIPDFISDLPVDEFVRELIVTNAFQPLNKFKEVQNHIGSALKIYVDELTEKRANGTVHILYSHK | 0.46 |
| HMKSAYADVAIAKVQDYVNVRAENNEDSEVLGKLYNNSAATVLETTDDGWYKISSGSVTGYVKSEYVVVG | -0.111 |
| HMKSEMYIDLSNALLKMSERDKELLTYRYTMEMSSKEISQITGIKESNVNSYIRRAREKLLKIFNAMNK | -3.73 |
| HMKSFDERQAALNELAKVIEGTGRKAEQDAEFRREQNQLMIDKIDEQLKGDLTDSQREELKKERAALARK | 0.174 |
